Laboratory results: the Human Domainome abundance scans (Beltran et al. 2025)
± gives the uncertainty stated by the source.

B1: Homeobox expressed in ES cells 1, residues 110 to 165; numbered along this chain, Q9UBX0 (parent)
chain: RPRTAFTQNQIEVLENVFRVNCYPGIDIREDLAQKLNLEEDRIQIWFQNRRAKLKR

Variants of: B1
Test: abundance fitness (aPCA) (normalised: wild type 0, dead -1); higher = more abundant; growth selection in yeast, the domain comes from the species named
Conditions: Homo sapiens

Abundance fitness, by site and new letter:
E39: R -0.34 ± 0.11; D 0.333 ± 0.33; S 0.02 ± 0.082; A -0.144 ± 0.18; I -1.06 ± 0.36; N -0.241 ± 0.26; M -0.562 ± 0.15; C -0.104 ± 0.088; L -0.507 ± 0.12; W -0.752 ± 0.23; G -0.154 ± 0.098; V -0.619 ± 0.12; K -0.476 ± 0.45; Q -0.185 ± 0.15; Y -0.675 ± 0.12
N37: F -0.195 ± 0.23; W -0.863 ± 0.47; T -0.258 ± 0.12; Q -0.189 ± 0.085; L -0.312 ± 0.13; E -0.138 ± 0.13; I -0.431 ± 0.38; C -0.18 ± 0.065; S -0.459 ± 0.22; K -0.032 ± 0.079; Y -0.634 ± 0.15; H -0.343 ± 0.3; P -0.051 ± 0.23; M -0.613 ± 0.36; G 0.093 ± 0.098; D -0.151 ± 0.31
I43: S -0.917 ± 0.25; R -0.936 ± 0.26; P -0.912 ± 0.44; W -0.822 ± 0.16; G -0.98 ± 0.13; E -0.966 ± 0.48; Q -0.796 ± 0.46; K -0.451 ± 0.4; T -0.543 ± 0.31; L -0.581 ± 0.16
Y23: W -0.063 ± 0.091; V -0.546 ± 0.21; S -0.04 ± 0.092; T -0.137 ± 0.2
L36: E -0.924 ± 0.34; C -0.508 ± 0.31; M -0.11 ± 0.34; H -0.712 ± 0.13; G -0.86 ± 0.15; D -0.862 ± 0.3; S -0.855 ± 0.34; V -1.01 ± 0.21; R -0.984 ± 0.19; A -1.01 ± 0.36; K -0.931 ± 0.36; W -0.132 ± 0.097; F 0.221 ± 0.2
K35: V -0.694 ± 0.18; S -0.487 ± 0.14; P -1.15 ± 0.3; F -0.603 ± 0.28; H -0.651 ± 0.47; I -0.468 ± 0.18; R -0.194 ± 0.075; G -0.657 ± 0.14; E 0.05 ± 0.13; C -0.515 ± 0.3; W -0.743 ± 0.11; Q -0.197 ± 0.19; N -0.317 ± 0.15; M -0.377 ± 0.1; Y -0.364 ± 0.29
I26: F -0.08 ± 0.2; S -0.078 ± 0.094; A -0.057 ± 0.14; E -0.19 ± 0.19; L 0.151 ± 0.12; R 0.002 ± 0.088; M -0.38 ± 0.3; C -0.218 ± 0.15; K 0.305 ± 0.14; N 0.226 ± 0.23; T -0.341 ± 0.14; G -0.319 ± 0.16; Y -0.159 ± 0.066; Q 0.013 ± 0.14; P 0.054 ± 0.21; D -0.297 ± 0.11; W -0.138 ± 0.13
Q44: G -0.206 ± 0.12; W -0.277 ± 0.23; A 0.087 ± 0.14; T 0.038 ± 0.1; V -0.161 ± 0.12; S -0.129 ± 0.08; M -0.12 ± 0.26; L -0.079 ± 0.11; D -0.007 ± 0.17; F -0.385 ± 0.28; Y -0.582 ± 0.33; E -0.532 ± 0.33; N -0.059 ± 0.26; K 0.179 ± 0.17; C 0.033 ± 0.085; P -0.982 ± 0.31; H 0.35 ± 0.18; I 0.061 ± 0.12
D41: I -0.027 ± 0.17; N 0.665 ± 0.18; Q -0.012 ± 0.21; G -0.171 ± 0.094; C -0.081 ± 0.15; R 0.026 ± 0.073; P -0.044 ± 0.15; W 0.055 ± 0.15; H -0.039 ± 0.31; M -0.174 ± 0.14; S 0.115 ± 0.11; K -0.174 ± 0.23; V -0.095 ± 0.13; T 0.023 ± 0.11; F -0.139 ± 0.12; E 0.08 ± 0.1
L38: T 0.077 ± 0.074; Q -0.223 ± 0.39; A -0.181 ± 0.14; D -0.665 ± 0.38; I 0.146 ± 0.12; S -0.259 ± 0.11; N -0.572 ± 0.27; W -0.885 ± 0.36; R -0.849 ± 0.1; Y -0.717 ± 0.26; V 0.061 ± 0.065; G -0.952 ± 0.19; F 0.009 ± 0.13; P -0.533 ± 0.25; K -0.685 ± 0.42; E -0.521 ± 0.25; C 0.151 ± 0.11
D31: T -0.568 ± 0.41; P -0.675 ± 0.36; A -0.106 ± 0.14; V -0.425 ± 0.09; Y -0.158 ± 0.21; W -0.532 ± 0.2; L -0.411 ± 0.087; M -0.32 ± 0.25; N 0.066 ± 0.15; C -0.468 ± 0.16; F 0.535 ± 0.19; K 0.679 ± 0.15; R -0.032 ± 0.056; I 0.221 ± 0.4
A33: S -0.124 ± 0.09; C -0.186 ± 0.31; L -0.89 ± 0.1; I -0.703 ± 0.2; Q 0.36 ± 0.48; W -0.694 ± 0.16; V -0.363 ± 0.16; E -0.848 ± 0.29; G -0.242 ± 0.079; M -0.252 ± 0.33; Y -0.396 ± 0.23; K -0.566 ± 0.33
